Measured values reported in publication PMC11633110.

Columns and labels:
[1] = target: T1, SydR' (WT, CC) (Sinorhizobium meliloti Rm2011) (UniProt Q92XY2); assay: EMSA; conditions: 10 mM Tris-HCl pH 8, 50 mM KCl, 0.5 mM EDTA, 10% glycerol, 0.5 mM DTT, 10 nM DNA, 25°C 25 min; 8% PAGE in 0.5x TBE
T1 sequence: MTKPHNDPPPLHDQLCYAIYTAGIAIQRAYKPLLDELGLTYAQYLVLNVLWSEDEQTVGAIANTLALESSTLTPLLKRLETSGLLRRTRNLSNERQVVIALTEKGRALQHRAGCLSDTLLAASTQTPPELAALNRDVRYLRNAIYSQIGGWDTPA

[2] = target: His-tagged recombinant SydR (SydR′), wild type (Sinorhizobium meliloti); assay: cross-linking; intersubunit disulfide bond assay: proteins reduced in 100 mM DTT for 2 h, desalted, oxidised with 100 mM NaOCl for 30 min, 100 mM N-ethylmaleimide for 2 h at room temperature, 10% non-reducing SDS-PAGE; shows covalent (disulfide) dimers only
[3] = target: SydRC16S (SC) (Sinorhizobium meliloti); assay: as above
[4] = target: SydRC114S (CS) (Sinorhizobium meliloti); assay: as above

Substance: CCGCCTTCCAGATCAGTACCGGCTTGCTTAGCCAAGCGCTCGGCCAAACGGACTGAGGCCTCCGTTGCGATCCACCCAGGCGACACCCGCACGACCCGGATACCTTTGGACGAAATTTCCTTCGCTATCGACTTGCCG (double strand) [SMa2019 internal fragment, 138 bp]
- binding [1]: no binding

Substance: TCTGGGCTCCTTTGCGCACCAATATAATCAAGATTACCGCGAAAACCAATATCGCGATAAGAGATATGTTGACGAGCAGTTCAATATCTGACAACTTAAATATATCGCGATAACAGTTATCGCTATCAACGAAAGGAAAAAGCC (double strand) [sydR-SMa2023 intergenic region, 144 bp]
- binding [1]: binds

Substance: His-tagged recombinant SydR (SydR′), wild type (natural protein)
- stoichiometry N [2]: 2

Substance: SydRC16S (SC) (natural protein)
- stoichiometry N [3]: 2

Substance: SydRC114S (CS) (natural protein)
- stoichiometry N [4]: 2
